From patent US20120100141A1 (GlaxoSmithKline, published 2012)

Legend:
Test in all cases: melanophore functional bioassay, transfected cells (data not shown)
[1] = target: T1, Human NPY2R (human, UniProt P49146 1-381)
T1 construct: whole, on cells; also called NPY2R (human)
T1 sequence (looked up): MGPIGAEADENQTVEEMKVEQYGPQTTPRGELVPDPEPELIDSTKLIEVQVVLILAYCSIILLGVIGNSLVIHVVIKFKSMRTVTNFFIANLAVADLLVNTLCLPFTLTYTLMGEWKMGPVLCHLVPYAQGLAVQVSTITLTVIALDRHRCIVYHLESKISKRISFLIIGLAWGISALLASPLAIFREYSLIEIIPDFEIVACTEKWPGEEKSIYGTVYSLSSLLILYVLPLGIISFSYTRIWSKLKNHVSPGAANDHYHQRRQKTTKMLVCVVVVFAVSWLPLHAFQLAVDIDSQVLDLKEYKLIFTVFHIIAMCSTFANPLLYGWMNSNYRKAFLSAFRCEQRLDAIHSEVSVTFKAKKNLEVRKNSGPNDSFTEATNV
Description: (§1) For assaying purposes cells were washed, trypsinized and resuspended in 0.7×EPG PBS at a concentration of 15×10⁶ cells per ml. 800 μl of cells were gently mixed with 20-40 μg of cDNA and incubated on ice for 20 minutes. […] After 2 hours they were placed in a sealed container in the incubator overnight (25° C., 0% CO2). The following day media was aspirated and 25 μl MAB (Melanophore Assay Buffer) containing 1% DMSO and 10 nM melatonin was added to each well. Cells were incubated for one hour and basal transmittance was measured on a SLT Spectra plate reader at 620 nm. Next, a dilution series (12 point series using 3 fold dilution intervals in MAB) containing 25 μl of a 2× concentration peptides and standards were added directly to each well. Standards included melatonin 10 nM, MSH 200 nM and MAB and were used to establish assay system Minimum, Maximum, and basal response levels, respectively. Following addition of peptides and standards, plates were incubated for 1 hour and transmittance measured as before. Data was analyzed using Robosage (version 7.3.2) by calculating (1−Tf/Ti) where Ti is initial baseline read, and Tf is the response read.

[2] = target: T2, Human NPY4R (human, UniProt P50391 1-375)
T2 construct: whole, on cells; also called NPY4R (human)
T2 sequence (P50391 whole entry): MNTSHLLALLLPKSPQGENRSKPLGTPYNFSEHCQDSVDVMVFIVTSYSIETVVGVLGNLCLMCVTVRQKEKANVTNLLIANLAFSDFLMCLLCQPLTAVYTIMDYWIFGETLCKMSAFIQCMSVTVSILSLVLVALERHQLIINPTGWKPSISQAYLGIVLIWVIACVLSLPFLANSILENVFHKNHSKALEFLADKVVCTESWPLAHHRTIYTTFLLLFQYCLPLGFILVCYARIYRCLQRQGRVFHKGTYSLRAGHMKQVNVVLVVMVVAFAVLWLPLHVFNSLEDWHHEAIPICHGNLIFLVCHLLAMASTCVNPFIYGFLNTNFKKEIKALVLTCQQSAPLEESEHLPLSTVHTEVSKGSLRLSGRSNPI
Description: as §1

[3] = target: T3, Mouse NPY4R (mouse, UniProt Q61041 1-375)
T3 construct: whole, on cells; also called NPY4R (mouse)
T3 sequence (Q61041 whole entry): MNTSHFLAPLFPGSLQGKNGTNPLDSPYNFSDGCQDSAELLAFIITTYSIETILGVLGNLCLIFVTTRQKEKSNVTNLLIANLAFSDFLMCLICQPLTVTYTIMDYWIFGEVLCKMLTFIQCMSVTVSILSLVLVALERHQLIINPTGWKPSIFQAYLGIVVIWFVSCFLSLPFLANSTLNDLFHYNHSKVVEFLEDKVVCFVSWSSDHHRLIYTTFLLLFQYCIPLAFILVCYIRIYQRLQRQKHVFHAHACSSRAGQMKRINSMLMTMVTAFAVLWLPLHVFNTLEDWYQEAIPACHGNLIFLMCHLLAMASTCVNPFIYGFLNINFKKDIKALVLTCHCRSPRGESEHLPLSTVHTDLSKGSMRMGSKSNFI
Description: as §1

[4] = target: T4, Human NPY5R (human, UniProt Q15761 1-445)
T4 construct: whole, on cells; also called NPY5R (human)
T4 sequence (looked up): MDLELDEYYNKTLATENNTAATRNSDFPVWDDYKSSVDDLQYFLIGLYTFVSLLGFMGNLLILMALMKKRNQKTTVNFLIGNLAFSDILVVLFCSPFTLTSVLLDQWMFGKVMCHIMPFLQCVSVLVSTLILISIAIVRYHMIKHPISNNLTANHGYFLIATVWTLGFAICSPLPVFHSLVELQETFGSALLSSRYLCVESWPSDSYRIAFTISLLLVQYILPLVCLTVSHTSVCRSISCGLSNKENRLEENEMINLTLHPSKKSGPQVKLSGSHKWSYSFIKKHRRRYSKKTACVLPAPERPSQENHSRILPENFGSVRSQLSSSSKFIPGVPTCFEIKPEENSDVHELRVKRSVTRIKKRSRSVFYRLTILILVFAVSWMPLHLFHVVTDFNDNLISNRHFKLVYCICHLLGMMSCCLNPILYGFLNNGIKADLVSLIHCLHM
Description: as §1

[5] = target: T5, Mouse NPY2R (mouse, UniProt P97295 1-381)
T5 construct: whole, on cells; also called NPY2R (mouse)
T5 sequence (looked up): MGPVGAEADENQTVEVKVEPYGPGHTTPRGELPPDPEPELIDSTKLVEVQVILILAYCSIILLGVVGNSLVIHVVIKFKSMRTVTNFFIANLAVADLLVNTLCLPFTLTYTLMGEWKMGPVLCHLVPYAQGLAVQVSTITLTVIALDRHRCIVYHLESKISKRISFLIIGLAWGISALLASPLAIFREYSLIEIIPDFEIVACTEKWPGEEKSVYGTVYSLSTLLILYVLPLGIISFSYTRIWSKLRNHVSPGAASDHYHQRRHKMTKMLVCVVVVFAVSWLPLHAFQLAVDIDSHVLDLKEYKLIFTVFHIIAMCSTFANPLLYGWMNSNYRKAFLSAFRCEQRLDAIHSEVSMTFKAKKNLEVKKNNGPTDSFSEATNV
Description: as §1

[6] = target: T6, Mouse NPY1R (mouse, UniProt Q04573 1-382)
T6 construct: whole, on cells; also called NPY1R (mouse)
T6 sequence (looked up): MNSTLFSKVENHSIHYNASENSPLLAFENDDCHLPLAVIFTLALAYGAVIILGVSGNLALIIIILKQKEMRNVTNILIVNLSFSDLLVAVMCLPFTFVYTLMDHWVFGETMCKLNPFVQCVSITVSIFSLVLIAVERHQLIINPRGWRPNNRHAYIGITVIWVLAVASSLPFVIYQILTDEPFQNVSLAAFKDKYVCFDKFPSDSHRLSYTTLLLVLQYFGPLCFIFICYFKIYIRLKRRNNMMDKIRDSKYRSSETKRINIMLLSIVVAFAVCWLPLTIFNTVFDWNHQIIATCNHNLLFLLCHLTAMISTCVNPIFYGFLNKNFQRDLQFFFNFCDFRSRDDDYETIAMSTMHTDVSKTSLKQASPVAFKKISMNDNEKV
Description: as §1

[7] = target: T7, Mouse NPY5R (mouse, UniProt O70342 1-466)
T7 construct: whole, on cells; also called NPY5R (mouse)
T7 sequence (looked up): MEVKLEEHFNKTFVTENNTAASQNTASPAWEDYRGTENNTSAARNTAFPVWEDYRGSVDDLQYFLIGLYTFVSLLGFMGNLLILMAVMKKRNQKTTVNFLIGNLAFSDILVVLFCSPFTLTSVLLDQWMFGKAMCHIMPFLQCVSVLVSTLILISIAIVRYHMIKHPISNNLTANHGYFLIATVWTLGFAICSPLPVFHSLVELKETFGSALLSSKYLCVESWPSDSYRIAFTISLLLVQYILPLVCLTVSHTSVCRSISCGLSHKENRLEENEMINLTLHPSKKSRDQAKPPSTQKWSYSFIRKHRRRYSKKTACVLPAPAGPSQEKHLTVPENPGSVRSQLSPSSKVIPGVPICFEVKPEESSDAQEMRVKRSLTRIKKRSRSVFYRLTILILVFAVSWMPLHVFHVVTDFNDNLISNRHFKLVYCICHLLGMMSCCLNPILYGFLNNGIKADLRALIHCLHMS
Description: as §1

[8] = target: T8, Human NPY1R (human, UniProt P25929 1-384)
T8 construct: whole, on cells; also called NPY1R (human)
T8 sequence (looked up): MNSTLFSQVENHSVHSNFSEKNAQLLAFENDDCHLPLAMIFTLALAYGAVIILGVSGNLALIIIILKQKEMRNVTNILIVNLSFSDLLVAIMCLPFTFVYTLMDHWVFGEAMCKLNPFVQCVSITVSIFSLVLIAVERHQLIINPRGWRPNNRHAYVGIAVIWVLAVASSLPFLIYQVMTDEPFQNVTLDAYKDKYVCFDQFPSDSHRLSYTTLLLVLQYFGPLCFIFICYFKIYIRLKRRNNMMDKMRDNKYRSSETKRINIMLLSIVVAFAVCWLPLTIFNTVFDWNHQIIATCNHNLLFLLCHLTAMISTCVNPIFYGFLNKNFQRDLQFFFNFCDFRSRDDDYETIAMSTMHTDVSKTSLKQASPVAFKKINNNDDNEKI
Description: as §1

Measured: binding result

B1: PYY (3-36) DOM7h-14-10 (R108C) AlbudAb peptide conjugate DMS7605 (other)
chain: DIQMTQSPSSLSASVGDRVTITCRASQWIGSQLSWYQQKPGKAPKLLIMWRSSLQSGVPSRFSGSGSGTDFTLTISSLQPEDFATYYCAQGLRHPKTFGQGTKVEIKC
peptide: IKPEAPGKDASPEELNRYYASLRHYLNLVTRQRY
modifications: C-terminal amide; lysine at position 10 derivatised with the 4 repeat PEG linker to the dAb cysteine; free C-terminal cysteine (R108C) coupled through maleimide to a 4 repeat PEG linker that is attached to the lysine at position 10 of the PYY peptide
notes: Chemical conjugate, not a genetic fusion; The dAb was made in E. coli, the peptide and PEG linker by chemical synthesis; also called DMS7167:PYY3-36; PYY(3-36) AlbudAb
binds: [1] | [2] | [3] | [4] | [5] | [6] | [7] | [8]
